Measurements as given in PMC2474558 (Biochemical Journal, 2008).

Target: hDOP–Renilla luciferase (human, UniProt P41143 1-372)
Experiment: FRET or BRET

Sequence of hDOP–Renilla luciferase (P41143 whole entry): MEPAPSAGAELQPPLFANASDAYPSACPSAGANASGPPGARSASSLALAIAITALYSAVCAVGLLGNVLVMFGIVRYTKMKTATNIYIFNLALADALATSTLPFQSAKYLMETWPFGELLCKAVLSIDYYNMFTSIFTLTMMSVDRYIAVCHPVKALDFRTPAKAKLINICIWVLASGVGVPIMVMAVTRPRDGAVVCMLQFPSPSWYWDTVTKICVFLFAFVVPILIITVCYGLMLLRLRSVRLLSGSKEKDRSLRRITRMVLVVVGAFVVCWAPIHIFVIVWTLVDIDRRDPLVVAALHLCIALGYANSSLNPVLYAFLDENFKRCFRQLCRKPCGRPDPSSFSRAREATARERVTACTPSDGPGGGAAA

BRET50: 0.34 ± 0.02 [acceptor] to [donor] ratio
B1: hCXCR2–GFP^2 (receptor)
chain: MEDFNMESDSFEDFWKGEDLSNYSYSSTLPPFLLDAAPCEPESLEINKYFVVIIYALVFLLSLLGNSLVMLVILYSRVGRSVTDVYLLNLALADLLFALTLPIWAASKVNGWIFGTFLCKVVSLLKEVNFYSGILLLACISVDRYLAIVHATRTLTQKRYLVKFICLSIWGLSLLLALPVLLFRRTVYSSNVSPACYEDMGNNTANWRMLLRILPQSFGFIVPLLIMLFCYGFTLRTLFKAHMGQKHRAMRVIFAVVLIFLLCWLPYNLVLLADTLMRTQVIQETCERRNHIDRALDATEILGILHSCLNPLIYAFIGQKFRHGLLKILAIHGLISKDSLPKDSRPSFVGSSSGHTSTTL
